Source: patent US20250270313A1 (SUNSHINE LAKE PHARMA, published 2025)

B1: m1B6-FC anti-Claudin 18.2 scFv-Fc fusion protein (Fc fusion)
scFv: DIVMTQSPSSLTVTAGEKVTMSCKSSQSLFNSGNQKNYLTWYQQKPGQPPKLLIYWASTRESGVPDRFTGSGSGTDFTLTISSVQAEDLAVYFCQNDYSYPLTFGAGTKLELRGGGGSGGGGSGGGGSEVQLQQSGPELVRPGASVKMSCKASGYTFTDYNMHWVKQSHGKSLEWIGYINPNNGGTSYNQKFKGKATLTVNKSSSTAYMELRSLTSEDSAVYYCVTTRYLAVWGTGTTVTVSS
notes: also called m1B6 (Fc fusion protein form); 1B6 scFv-Fc; not shown: detected wi
B2: m1E7 anti-Claudin 18.2 murine monoclonal antibody (antibody, mouse IgG2b, kappa)
heavy: QVQLQQPGSELVKPGASVKLSCKASGYTFTSYWMHWVKQRPGQGLEWIGMIHPNSGSTNYNEKFKSKATLTVDKSSSTAYMQLSSLTSEDSAVYYCARRYYGSISPDYWGQGTTLTVSSAKTTPPSVYPLAPGCGDTTGSSVTLGCLVKGYFPESVTVTWNSGSLSSSVHTFPALLQSGLYTMSSSVTVPSSTWPSQTVTCSVAHPASSTTVDKKLEPSGPISTINPCPPCKECHKCPAPNLEGGPSVFIFPPNIKDVLMISLTPKVTCVVVDVSEDDPDVQISWFVNNVEVHTAQTQTHREDYNSTIRVVSTLPIQHQDWMSGKEFKCKVNNKDLPSPIERTISKIKGLVRAPQVYILPPPAEQLSRKDVSLTCLVVGFNPGDISVEWTSNGHTEENYKDTAPVLDSDGSYFIYSKLNMKTSKWEKTDSFSCNVRHEGLKNYYLKKTISRSPGK
light: DIVMTQSPSSLSVTAGEKVTMSCKSSQSLLNSGNQKNYLTWYQQKPGQPPKLLIYWASTRESGVPDRFTGSGSGTDFTLTISSVQAEDLAVYYCQNDYSYPFTFGSGTKLEIKRADAAPTVSIFPPSSEQLTSGGASVVCFLNNFYPKDINVKWKIDGSERQNGVLNSWTDQDSKDSTYSMSSTLTLTKDEYERHNSYTCEATHKTSTSPIVKSFNRNEC
notes: Murine antibody with full heavy and light chains; also called 1E7 (hybridoma); m1E7 mAb
B3: m1B6 anti-Claudin 18.2 murine monoclonal antibody (antibody, mouse IgG2b, kappa)
heavy: EVQLQQSGPELVRPGASVKMSCKASGYTFTDYNMHWVKQSHGKSLEWIGYINPNNGGTSYNQKFKGKATLTVNKSSSTAYMELRSLTSEDSAVYYCVTTRYLAVWGTGTTVTVSSAKTTPPSVYPLAPGCGDTTGSSVTLGCLVKGYFPESVTVTWNSGSLSSSVHTFPALLQSGLYTMSSSVTVPSSTWPSQTVTCSVAHPASSTTVDKKLEPSGPISTINPCPPCKECHKCPAPNLEGGPSVFIFPPNIKDVLMISLTPKVTCVVVDVSEDDPDVQISWFVNNVEVHTAQTQTHREDYNSTIRVVSTLPIQHQDWMSGKEFKCKVNNKDLPSPIERTISKIKGLVRAPQVYILPPPAEQLSRKDVSLTCLVVGFNPGDISVEWTSNGHTEENYKDTAPVLDSDGSYFIYSKLNMKTSKWEKTDSFSCNVRHEGLKNYYLKKTISRSPGK
light: DIVMTQSPSSLTVTAGEKVTMSCKSSQSLFNSGNQKNYLTWYQQKPGQPPKLLIYWASTRESGVPDRFTGSGSGTDFTLTISSVQAEDLAVYFCQNDYSYPLTFGAGTKLELRRADAAPTVSIFPPSSEQLTSGGASVVCFLNNFYPKDINVKWKIDGSERQNGVLNSWTDQDSKDSTYSMSSTLTLTKDEYERHNSYTCEATHKTSTSPIVKSFNRNEC
notes: Murine antibody with full heavy and light chains; also called 1B6 (hybridoma); m1B6 mAb
B4: IMAB362 control antibody (antibody, V domains shown)
VH: QVQLQQPGAELVRPGASVKLSCKASGYTFTSYWINWVKQRPGQGLEWIGNIYPSDSYTNYNQKFKDKATLTVDKSSSTAYMQLSSPTSEDSAVYYCTRSWRGNSFDYWGQGTTLTVSS
VL: DIVMTQSPSSLTVTAGEKVTMSCKSSQSLLNSGNQKNYLTWYQQKPGQPPKLLIYWASTRESGVPDRFTGSGSGTDFTLTISSVQAEDLAVYYCQNDYSYPFTFGSGTKLEIKR
B5: m1E7-FC anti-Claudin 18.2 scFv-Fc fusion protein (Fc fusion)
scFv: DIVMTQSPSSLSVTAGEKVTMSCKSSQSLLNSGNQKNYLTWYQQKPGQPPKLLIYWASTRESGVPDRFTGSGSGTDFTLTISSVQAEDLAVYYCQNDYSYPFTFGSGTKLEIKGGGGSGGGGSGGGGSQVQLQQPGSELVKPGASVKLSCKASGYTFTSYWMHWVKQRPGQGLEWIGMIHPNSGSTNYNEKFKSKATLTVDKSSSTAYMQLSSLTSEDSAVYYCARRYYGSISPDYWGQGTTLTVSS
notes: also called m1E7 (Fc fusion protein form); 1E7 scFv-Fc; not shown: detected wi
B6: chimeric antibody 1B6 (antibody, human IgG1, kappa)
heavy: not shown
light: DIVMTQSPSSLTVTAGEKVTMSCKSSQSLFNSGNQKNYLTWYQQKPGQPPKLLIYWASTRESGVPDRFTGSGSGTDFTLTISSVQAEDLAVYFCQNDYSYPLTFGAGTKLELRRTVAAPSVFIFPPSDEQLKSGTASVVCLLNNFYPREAKVQWKVDNALQSGNSQESVTEQDSKDSTYSLSSTLTLSKADYEKHKVYACEVTHQGLSSPVTKSFNRGEC
B7: chimeric antibody 1E7 (antibody, human IgG1, kappa)
heavy: not shown
light: DIVMTQSPSSLSVTAGEKVTMSCKSSQSLLNSGNQKNYLTWYQQKPGQPPKLLIYWASTRESGVPDRFTGSGSGTDFTLTISSVQAEDLAVYYCQNDYSYPFTFGSGTKLEIKRTVAAPSVFIFPPSDEQLKSGTASVVCLLNNFYPREAKVQWKVDNALQSGNSQESVTEQDSKDSTYSLSSTLTLSKADYEKHKVYACEVTHQGLSSPVTKSFNRGEC

Legend:
[1] = target: T1, human Claudin 18.2 (hClaudin18.2) (human, UniProt P56856-2 1-261); test: flow cytometry on CHO cells overexpressing claudin18.2, scFv-Fc fusion protein
T1 construct: whole, on cells; also called CLDN18.2; hClaudin18.2-CHO
Description: CHO overexpressing claudin18.2 cells were prepared and centrifuged at 300 g for 5 minutes, then resuspended in PBS, and this step was repeated twice. Finally, the concentration was adjusted to 3E+06 cells/mL with PBS. […] CHO overexpressing claudin18.1 cells and CHO overexpressing claudin18.2 cells were laid out in two rows of transparent 96 round-bottomed wells, each with 100 μL, and then the antibodies were added to the cells in order and mixed evenly at 1:1. Each was set blank wells and negative wells. The mixture was put in a refrigerator at 4° C. and incubated for 1 hour. After the incubation, the mixture was centrifuged at 500 g for 3 min in a large-capacity benchtop high-speed centrifuge, then resuspended in PBS, and this step was repeated three times. The PE-labeled goat anti-human secondary antibody was diluted to a concentration of 1:500, and 100 μL was added to each well. The blank wells were left alone. The mixture was put in a refrigerator at 4° C. and incubated for 30 min. After the incubation, the mixture was centrifuged at 500 g for 3 min in a large-capacity tabletop high-speed centrifuge, then resuspended in PBS, and this step was repeated three times. Finally, 180 μL of PBS was added to each well and BDverse flow cytometer was used to test.

[2] = target: T1, human Claudin 18.2 (hClaudin18.2); test: flow cytometry on CHO cells overexpressing claudin18.2, purified murine antibody
Description: CHO overexpressing claudin18.1 cells and CHO overexpressing claudin18.2 cells were prepared, centrifuged at 300 g for 5 minutes, then resuspended in PBS, and this step was repeated twice. Finally, the concentration was adjusted to 3E+06 cells/mL with PBS. […] CHO overexpressing claudin18.1 cells and CHO overexpressing claudin18.2 cells were laid out in two rows of transparent 96 round-bottomed wells, each with 100 μL, and then the antibodies were added to the cells in order and mixed evenly at 1:1. Each was set blank wells and negative wells. The mixture was put in a refrigerator at 4° C. and incubated for 1 hour. After the incubation, the mixture was centrifuged at 500 g for 3 min in a large-capacity benchtop high-speed centrifuge, then resuspended in PBS, and this step was repeated three times. The PE-labeled goat anti-mouse secondary antibody was diluted to a concentration of 1:500, and 100 μL was added to each well. The blank wells were left alone. The mixture was put in a refrigerator at 4° C. and incubated for 30 min. After the incubation, the mixture was centrifuged at 500 g for 3 min in a large-capacity tabletop high-speed centrifuge, then resuspended in PBS, and this step was repeated three times. Finally, 180 μL of PBS was added to each well and BDverse flow cytometer was used to test.

[3] = target: T2, hClaudin 18.2 peptide 18.2EL1-A (human); test: peptide competition: antibody pre-incubated with peptide, then flow cytometry on CHO cells overexpressing claudin18.2
T2 construct: also called peptide A; A peptide
T2 peptide: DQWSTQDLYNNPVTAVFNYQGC

[4] = target: T3, hClaudin 18.2 peptide 18.2EL1-E (human); test: as above
T3 construct: also called peptide E; E peptide
T3 peptide: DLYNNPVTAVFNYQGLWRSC

[5] = target: T1, human Claudin 18.2 (hClaudin18.2); test: cell-based or functional assay

| Binder | ADCC reporter (Jurkat-NFAT-Luc-CD16 luciferase), half-peak concentration EC50, target cell BXPC-3-Claudin 18.2 [5] [ng/mL] | ADCC reporter (Jurkat-NFAT-Luc-CD16 luciferase), half-peak concentration EC50, target cell Capan-1-Claudin 18.2 [5] [ng/mL] | ADCC reporter (Jurkat-NFAT-Luc-CD16 luciferase), half-peak concentration EC50, target cell SK-GT-Claudin 18.2 [5] [ng/mL] | CDC activity (CCK8 cell viability, OD450), half inhibitory concentration IC50, target cell KATOIII-3-Claudin 18.2 [5] [ng/mL] | other results |
| --- | --- | --- | --- | --- | --- |
| B1 | – | – | – | – | EC50 [1]: ~500 ng/mL |
| B2 | – | – | – | – | EC50 [2]: ~100 ng/mL; binding result [3]: binds |
| B3 | – | – | – | – | EC50 [2]: ~60 ng/mL; binding result [4]: binds; binding result [3]: binds |
| B4 | 3.45 | 3.48 | 9.06 | 4890 | – |
| B5 | – | – | – | – | EC50 [1]: ~2600 ng/mL |
| B6 | 2.11 | 2.68 | 4.47 | 2660 | – |
| B7 | 2.7 | 2.63 | 7.07 | 1570 | – |
